Here are results for 23 molecules from patent publication US20120028901A1.

The chains are these.
B1: JBT0806 (peptide)
chain: FQSKGNVFVAGYFARLRAKL
B2: JBT0720 (peptide)
chain: FQSKGNVFVTGYFARLRAKL
B3: JBT0583 (peptide)
chain: FQSKKNVFVFGYFERLRAFL
B4: JBT0580 (peptide)
chain: FQSKKNVFVFGYFERFRAKL
B5: JBT0577 (peptide)
chain: FQSKKNVFVFGFFERLRAKL
B6: JBT0592 (peptide)
chain: FQSKKNVFDFGYFERLRAKL
B7: JBT0591 (peptide)
chain: FQSKKNVDVFGYFERLRAKL
B8: JBT0574 (peptide)
chain: FQSKKFVFVFGYFERLRAKL
B9: JBT0594 (peptide)
chain: FQSKKNVFVFGDFERLRAKL
B10: JBT0582 (peptide)
chain: FQSKKNVFVFGYFERLRFKL
B11: JBT0588 (peptide)
chain: FQSDKNVFVFGYFERLRAKL
B12: JBT0572 (peptide)
chain: FQSFKNVFVFGYFERLRAKL
B13: JBT0586 (peptide)
chain: FDSKKNVFVFGYFERLRAKL
B14: JBT0573 (peptide)
chain: FQSKFNVFVFGYFERLRAKL
B15: JBT0570 (peptide)
chain: FFSKKNVFVFGYFERLRAKL
B16: JBT0571 (peptide)
chain: FQFKKNVFVFGYFERLRAKL
B17: JBT0576 (peptide)
chain: FQSKKNVFVFFYFERLRAKL
B18: JBT0581 (peptide)
chain: FQSKKNVFVFGYFERLFAKL
B19: JBT0516 (peptide)
chain: FESKGNVFVFGYFERLRAKL
B20: JBT0579 (peptide)
chain: FQSKKNVFVFGYFEFLRAKL
B21: JBT0487 (peptide)
chain: FQSKNNVFVHGYFERLRAKL
B22: JBT0590 (peptide)
chain: FQSKKNDFVFGYFERLRAKL
B23: JBT0497 (peptide)
chain: AQSKGNVFVFGYFERLRAKL

Broadly, the EC50 is the concentration at which the effect is half-maximal. A higher EC50 goes with weaker potency. Usually IC50 stands for the concentration that inhibits the measured activity by half. Lower therefore signals greater potency.

The target of one assay is T1, TFPI (human TFPI-1α) as coated or added in the ELISA, microarray and enzymatic assays (human), P10646.
Experiment: not given
The conditions noted are these: modification not given.
Molecule B1 had an EC50 of 2420 nM.

For another assay, the target named is T1, TFPI (human TFPI-1α) as coated or added ….
Experiment: not given
The conditions noted are these: modification not given. The source holds these as a separate data set.
Regarding B1, the EC50 came to 130 nM.

The target is the same in another assay.
Experiment: not given
Conditions: modification not given. This is another data set of the same source.
As to B2, the EC50 worked out at 220 nM.

Another assay has the same target. Nature of the assay: competition. The conditions noted are these: modification not given.
B3: the IC50 is over 5000 nM. Consider B4, for which the IC50 was over 5000 nM. For the molecule B5, the IC50 is over 5000 nM. On the same count and under the same terms, then B6, with over 5000 nM; and B7, with over 5000 nM; and B8, with over 5000 nM. On to B9, for which the IC50 was over 5000 nM. B10 registered an IC50 of over 5000 nM.

Regarding B11, the IC50 was over 5000 nM. The same measure, in the same setting: then B12, with over 5000 nM; and B13, with over 1670 nM. Still for that read-out and setting: the result for B14 reads 1370 nM.

Regarding B15, the IC50 is over 5000 nM. As for B16, the IC50 was over 5000 nM. The molecule B17 displayed an IC50 of over 1670 nM.

B18 came in with an IC50 of over 5000 nM.

B19 gave a half-inhibitory concentration (IC50) of 1190 nM. This counts as single-digit micromolar. Molecule B20 gave an IC50 of over 5000 nM. On to B21, for which the IC50 is 40 nM. For the molecule B22, the IC50 is over 5000 nM. The molecule B23 came in with an IC50 of 100 nM.
